# In paper PMC10397247:
# Columns and labels:
# P4A-bN = target: T1, P4A-bN; assay: two-hybrid library CCNG1;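 note: natural log of median RNA to DNA barcode read ratio; higher means stronger binding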
# T1 chain: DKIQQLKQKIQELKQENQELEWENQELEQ
# P6A-bN = target: T2, P6A-bN; assay: two-hybrid library CCNG1;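 note: natural log of median RNA to DNA barcode read ratio; higher means stronger binding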
# T2 chain: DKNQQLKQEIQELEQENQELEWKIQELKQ
# P7A-bN = target: T3, P7A-bN; assay: two-hybrid library CCNG1;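 note: natural log of median RNA to DNA barcode read ratio; higher means stronger binding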
# T3 chain: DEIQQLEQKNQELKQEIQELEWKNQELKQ
# P8A-bN = target: T4, P8A-bN; assay: two-hybrid library CCNG1;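 note: natural log of median RNA to DNA barcode read ratio; higher means stronger binding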
# T4 chain: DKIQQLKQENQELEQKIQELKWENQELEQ
# P9A-bN = target: T5, P9A-bN; assay: two-hybrid library CCNG1;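 note: natural log of median RNA to DNA barcode read ratio; higher means stronger binding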
# T5 chain: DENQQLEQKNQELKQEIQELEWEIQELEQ
# P4A-bS = target: T6, P4A-bS; assay: two-hybrid library CCNG1;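 note: natural log of median RNA to DNA barcode read ratio; higher means stronger binding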
# T6 chain: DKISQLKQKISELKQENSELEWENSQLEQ
# P5A-bS = target: T7, P5A-bS; assay: two-hybrid library CCNG1
# T7 chain: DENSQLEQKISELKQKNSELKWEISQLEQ
# P6A-bS = target: T8, P6A-bS; assay: two-hybrid library CCNG1
# T8 chain: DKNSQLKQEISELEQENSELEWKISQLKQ
# P7A-bS = target: T9, P7A-bS; assay: two-hybrid library CCNG1
# T9 chain: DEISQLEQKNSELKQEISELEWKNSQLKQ
# P8A-bS = target: T10, P8A-bS; assay: two-hybrid library CCNG1
# T10 chain: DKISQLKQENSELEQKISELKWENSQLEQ
# P9A-bS = target: T11, P9A-bS; assay: two-hybrid library CCNG1
# T11 chain: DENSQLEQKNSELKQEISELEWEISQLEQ
# 4H2667-bA = target: T12, 4H2667-bA; assay: two-hybrid library CCNG1
# T12 chain: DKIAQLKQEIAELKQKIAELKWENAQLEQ
# 4H2697-bA = target: T13, 4H2697-bA; assay: two-hybrid library CCNG1
# T13 chain: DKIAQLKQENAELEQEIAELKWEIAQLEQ
# 4H2729-bA = target: T14, 4H2729-bA; assay: two-hybrid library CCNG1
# T14 chain: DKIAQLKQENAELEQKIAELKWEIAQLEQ
# 4H3112-bA = target: T15, 4H3112-bA; assay: two-hybrid library CCNG1
# T15 chain: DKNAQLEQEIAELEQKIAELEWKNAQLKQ
# 4H3185-bA = target: T16, 4H3185-bA; assay: two-hybrid library CCNG1
# T16 chain: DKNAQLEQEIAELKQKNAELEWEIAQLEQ
# 4H3189-bA = target: T17, 4H3189-bA; assay: two-hybrid library CCNG1
# T17 chain: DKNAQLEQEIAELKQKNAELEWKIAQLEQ
# 4H3297-bA = target: T18, 4H3297-bA; assay: two-hybrid library CCNG1
# T18 chain: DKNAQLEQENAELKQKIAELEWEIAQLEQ
# 4H331-bA = target: T19, 4H331-bA; assay: two-hybrid library CCNG1
# T19 chain: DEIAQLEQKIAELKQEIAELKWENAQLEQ
# 4H3354-bA = target: T20, 4H3354-bA; assay: two-hybrid library CCNG1
# T20 chain: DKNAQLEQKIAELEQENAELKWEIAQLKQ
# 4H338-bA = target: T21, 4H338-bA; assay: two-hybrid library CCNG1
# T21 chain: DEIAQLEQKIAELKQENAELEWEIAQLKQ
# 4H3427-bA = target: T22, 4H3427-bA; assay: two-hybrid library CCNG1
# T22 chain: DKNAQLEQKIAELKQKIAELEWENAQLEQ
# 4H3606-bA = target: T23, 4H3606-bA; assay: two-hybrid library CCNG1
# T23 chain: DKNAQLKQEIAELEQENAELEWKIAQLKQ
# 4H370-bA = target: T24, 4H370-bA; assay: two-hybrid library CCNG1
# T24 chain: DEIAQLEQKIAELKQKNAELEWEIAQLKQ
# 4H3782-bA = target: T25, 4H3782-bA; assay: two-hybrid library CCNG1
# T25 chain: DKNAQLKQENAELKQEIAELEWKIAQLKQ
# 4H3843-bA = target: T26, 4H3843-bA; assay: two-hybrid library CCNG1
# T26 chain: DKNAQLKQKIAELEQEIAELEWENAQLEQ
# 4H3855-bA = target: T27, 4H3855-bA; assay: two-hybrid library CCNG1
# T27 chain: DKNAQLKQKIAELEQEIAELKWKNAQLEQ
# 4H3926-bH = target: T28, 4H3926-bH; assay: two-hybrid library CCNG1
# T28 chain: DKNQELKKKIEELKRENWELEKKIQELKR
# 4H4001-bA = target: T29, 4H4001-bA; assay: two-hybrid library CCNG1
# T29 chain: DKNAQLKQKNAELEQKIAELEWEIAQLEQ
# 4H454-bA = target: T30, 4H454-bA; assay: two-hybrid library CCNG1
# T30 chain: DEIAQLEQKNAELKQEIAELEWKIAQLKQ
# 4H462-bA = target: T31, 4H462-bA; assay: two-hybrid library CCNG1
# T31 chain: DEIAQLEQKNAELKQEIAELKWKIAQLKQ
# 4H568-bA = target: T32, 4H568-bA; assay: two-hybrid library CCNG1
# T32 chain: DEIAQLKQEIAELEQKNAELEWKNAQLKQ
# 4H607-bA = target: T33, 4H607-bA; assay: two-hybrid library CCNG1
# T33 chain: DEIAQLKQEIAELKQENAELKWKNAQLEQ
# 4H687-bA = target: T34, 4H687-bA; assay: two-hybrid library CCNG1
# T34 chain: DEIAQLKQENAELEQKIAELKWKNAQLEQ
# 4H717-bA = target: T35, 4H717-bA; assay: two-hybrid library CCNG1
# T35 chain: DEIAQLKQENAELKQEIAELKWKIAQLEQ
# 4H72-bA = target: T36, 4H72-bA; assay: two-hybrid library CCNG1
# T36 chain: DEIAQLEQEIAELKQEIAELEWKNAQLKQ
# 4H754-bA = target: T37, 4H754-bA; assay: two-hybrid library CCNG1
# T37 chain: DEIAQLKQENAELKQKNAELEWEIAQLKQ
# 4H797-bA = target: T38, 4H797-bA; assay: two-hybrid library CCNG1
# T38 chain: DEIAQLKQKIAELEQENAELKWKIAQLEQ
# 4H883-bA = target: T39, 4H883-bA; assay: two-hybrid library CCNG1
# T39 chain: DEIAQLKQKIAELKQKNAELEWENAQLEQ
# 4H908-bA = target: T40, 4H908-bA; assay: two-hybrid library CCNG1
# T40 chain: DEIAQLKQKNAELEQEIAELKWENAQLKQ
# 4H918-bA = target: T41, 4H918-bA; assay: two-hybrid library CCNG1
# T41 chain: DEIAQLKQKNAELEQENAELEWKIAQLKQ
# 4H953-bA = target: T42, 4H953-bA; assay: two-hybrid library CCNG1
# T42 chain: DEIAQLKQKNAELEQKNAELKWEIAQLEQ
# 4H967-bA = target: T43, 4H967-bA; assay: two-hybrid library CCNG1
# T43 chain: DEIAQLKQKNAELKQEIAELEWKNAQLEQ
# 4H2238-AA = target: T44, 4H2238-AA; assay: two-hybrid library CCmax
# T44 chain: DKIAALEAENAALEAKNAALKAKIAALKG
# 4H2513-AA = target: T45, 4H2513-AA; assay: two-hybrid library CCmax; settings: mean of both orientations
# T45 chain: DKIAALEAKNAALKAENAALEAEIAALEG
# 4H2536-AA = target: T46, 4H2536-AA; assay: two-hybrid library CCmax; settings: mean of both orientations
# T46 chain: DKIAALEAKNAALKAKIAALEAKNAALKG
# 4H2608-AA = target: T47, 4H2608-AA; assay: two-hybrid library CCmax; settings: mean of both orientations
# T47 chain: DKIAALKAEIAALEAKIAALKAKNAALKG
# 4H2614-AA = target: T48, 4H2614-AA; assay: two-hybrid library CCmax; settings: mean of both orientations
# T48 chain: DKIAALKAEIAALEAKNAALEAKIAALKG
# 4H2726-AA = target: T49, 4H2726-AA; assay: two-hybrid library CCmax; settings: mean of both orientations
# T49 chain: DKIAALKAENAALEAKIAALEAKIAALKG
# 4H2935-AA = target: T50, 4H2935-AA; assay: two-hybrid library CCmax; settings: mean of both orientations
# T50 chain: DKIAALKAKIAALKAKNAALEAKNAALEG
# 4H327-AA = target: T51, 4H327-AA; assay: two-hybrid library CCmax; settings: mean of both orientations
# T51 chain: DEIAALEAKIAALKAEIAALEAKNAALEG
# 4H3605-AA = target: T52, 4H3605-AA; assay: two-hybrid library CCmax; settings: mean of both orientations
# T52 chain: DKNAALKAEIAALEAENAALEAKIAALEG
# 4H3625-AA = target: T53, 4H3625-AA; assay: two-hybrid library CCmax; settings: mean of both orientations
# T53 chain: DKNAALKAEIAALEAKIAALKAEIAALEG
# 4H3664-AA = target: T54, 4H3664-AA; assay: two-hybrid library CCmax; settings: mean of both orientations
# T54 chain: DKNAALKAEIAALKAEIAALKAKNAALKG
# 4H369-AA = target: T55, 4H369-AA; assay: two-hybrid library CCmax; settings: mean of both orientations
# T55 chain: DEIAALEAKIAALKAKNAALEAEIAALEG
# 4H3922-AA = target: T56, 4H3922-AA; assay: two-hybrid library CCmax; settings: mean of both orientations
# T56 chain: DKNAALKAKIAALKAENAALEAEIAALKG
# 4H4033-AA = target: T57, 4H4033-AA; assay: two-hybrid library CCmax; settings: mean of both orientations
# T57 chain: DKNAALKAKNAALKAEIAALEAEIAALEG
# 4H481-AA = target: T58, 4H481-AA; assay: two-hybrid library CCmax; settings: mean of both orientations
# T58 chain: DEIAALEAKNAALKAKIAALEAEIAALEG
# 4H55-AA = target: T59, 4H55-AA; assay: two-hybrid library CCmax; settings: mean of both orientations
# T59 chain: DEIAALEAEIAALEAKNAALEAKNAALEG
# 4H662-AA = target: T60, 4H662-AA; assay: two-hybrid library CCmax; settings: mean of both orientations
# T60 chain: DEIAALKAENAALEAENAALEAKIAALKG
# 4H855-bH = target: T61, 4H855-bH; assay: two-hybrid library CCNG1
# T61 chain: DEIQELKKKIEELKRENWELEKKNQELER
# 4H918-bH = target: T62, 4H918-bH; assay: two-hybrid library CCNG1
# T62 chain: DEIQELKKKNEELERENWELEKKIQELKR
# 4H953-bH = target: T63, 4H953-bH; assay: two-hybrid library CCNG1
# T63 chain: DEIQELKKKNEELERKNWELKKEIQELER
# 4H968-bH = target: T64, 4H968-bH; assay: two-hybrid library CCNG1
# T64 chain: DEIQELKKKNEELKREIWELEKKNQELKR
binder,measurement,setting,value
DKIQQLKQKIQELKQENQELEWENQELEQ [P4A-bN],interaction score,P4A-bN,-1.26
same,interaction score,P6A-bN,-1.54
same,interaction score,P7A-bN,-1.45
same,interaction score,P8A-bN,-0.841
same,interaction score,P9A-bN,-0.681
DKISQLKQKISELKQENSELEWENSQLEQ [P4A-bS],interaction score,P4A-bS,-1.08
same,interaction score,P5A-bS,-0.436
same,interaction score,P6A-bS,-1.51
same,interaction score,P7A-bS,-0.905
same,interaction score,P8A-bS,-0.866
same,interaction score,P9A-bS,-2
DKIAQLKQEIAELKQKIAELKWENAQLEQ [4H2667-bA],interaction score,4H2667-bA,0.263
same,interaction score,4H2697-bA,0.478
same,interaction score,4H2729-bA,0.719
same,interaction score,4H3112-bA,0.96
same,interaction score,4H3185-bA,-0.669
same,interaction score,4H3189-bA,-0.909
same,interaction score,4H3297-bA,0.0617
same,interaction score,4H331-bA,0.846
same,interaction score,4H3354-bA,-0.643
same,interaction score,4H338-bA,0.164
same,interaction score,4H3427-bA,0.719
same,interaction score,4H3606-bA,0.0163
same,interaction score,4H370-bA,-0.0583
same,interaction score,4H3782-bA,-0.43
same,interaction score,4H3843-bA,1.49
same,interaction score,4H3855-bA,-0.565
same,interaction score,4H3926-bH,-1.75
same,interaction score,4H4001-bA,1.02
same,interaction score,4H454-bA,1.25
same,interaction score,4H462-bA,-0.172
same,interaction score,4H568-bA,0.688
same,interaction score,4H607-bA,-1.24
same,interaction score,4H687-bA,-1.37
same,interaction score,4H717-bA,-1.61
same,interaction score,4H72-bA,0.976
same,interaction score,4H754-bA,-1.06
same,interaction score,4H797-bA,-1.09
same,interaction score,4H883-bA,-0.985
same,interaction score,4H908-bA,-0.691
same,interaction score,4H918-bA,-1.68
same,interaction score,4H953-bA,-0.966
same,interaction score,4H967-bA,-1.08
same,interaction score,P4A-bS,-1.72
DKIAALEAENAALEAKNAALKAKIAALKG [4H2238-AA],interaction score,4H2238-AA,-0.902
same,interaction score,4H2513-AA,2.15
same,interaction score,4H2536-AA,-1.01
same,interaction score,4H2608-AA,-1.6
same,interaction score,4H2614-AA,-1.25
same,interaction score,4H2726-AA,-0.445
same,interaction score,4H2935-AA,-1.18
same,interaction score,4H327-AA,-0.966
same,interaction score,4H3605-AA,-0.657
same,interaction score,4H3625-AA,-1.18
same,interaction score,4H3664-AA,-1.15
same,interaction score,4H369-AA,2.28
same,interaction score,4H3922-AA,1.59
same,interaction score,4H4033-AA,1.31
same,interaction score,4H481-AA,1.84
same,interaction score,4H55-AA,-1.77
same,interaction score,4H662-AA,1.18
DEIQELKKKIEELKRENWELEKKNQELER [4H855-bH],interaction score,4H855-bH,-0.389
same,interaction score,4H918-bH,-0.637
same,interaction score,4H953-bH,-1.14
same,interaction score,4H968-bH,0.133
same,interaction score,P4A-bN,-0.185
